Measured values reported in US20100040604A1.

What was measured:
[1] = target: recombinant human TNFα (rhTNFα) (human) (UniProt P01375); assay: SPR (BIAcore), biotinylated rhTNFα on streptavidin chip; [Ab] 13 nM
[2] = target: recombinant human TNFα (rhTNFα) (human) (UniProt P01375); assay: SPR (BIAcore), biotinylated rhTNFα on streptavidin chip; [Ab] 25 nM
[3] = target: recombinant human TNFα (rhTNFα) (human) (UniProt P01375); assay: SPR (BIAcore), biotinylated rhTNFα on streptavidin chip; [Ab] 200 nM
[4] = target: recombinant human TNFα (rhTNFα) (human) (UniProt P01375); assay: SPR (BIAcore), biotinylated rhTNFα on streptavidin chip; [Ab] 100 nM
[5] = target: recombinant human TNFα (rhTNFα) (human) (UniProt P01375); assay: SPR (BIAcore), biotinylated rhTNFα on streptavidin chip; average over the concentrations
[6] = target: recombinant human TNFα (rhTNFα) (human) (UniProt P01375); assay: SPR (BIAcore), biotinylated rhTNFα on streptavidin chip; [Ab] 50 nM
[7] = target: recombinant human TNFα (rhTNFα) (human) (UniProt P01375); assay: SPR (BIAcore), biotinylated rhTNFα on streptavidin chip; [Ab] 3 nM
[8] = target: recombinant human TNFα (rhTNFα) (human) (UniProt P01375); assay: SPR (BIAcore), biotinylated rhTNFα on streptavidin chip; [Ab] 6 nM
[9] = target: recombinant human TNFα (rhTNFα) (human) (UniProt P01375); assay: cell-based or functional assay
[10] = target: recombinant human TNFα (rhTNFα) (human) (UniProt P01375); assay: SPR (BIAcore), biotinylated rhTNFα on streptavidin chip; [Ab] 400 nM
[11] = target: recombinant human TNFα (rhTNFα) (human) (UniProt P01375); assay: SPR (BIAcore), summary table

Sequence of recombinant human TNFα (rhTNFα) (human) (P01375 77-233 limits assumed): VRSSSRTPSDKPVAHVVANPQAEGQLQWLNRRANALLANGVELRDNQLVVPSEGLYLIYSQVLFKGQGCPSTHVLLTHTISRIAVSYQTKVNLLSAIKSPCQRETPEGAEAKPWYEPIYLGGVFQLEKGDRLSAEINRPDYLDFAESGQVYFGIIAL

- Ab, bound, RUs [1]: 708 RU
- koff [1]: 3.66e-05 s⁻¹
- rhTNFα/Ab [1]: 0.78
- Ab, bound, RUs [2]: 957 RU
- koff [2]: 4.41e-05 s⁻¹
- rhTNFα/Ab [2]: 1.09
- Ab, bound, RUs [3]: 1080 RU
- koff [3]: 4.54e-05 s⁻¹
- rhTNFα/Ab [3]: 1.38
- Ab, bound, RUs [4]: 1140 RU
- koff [4]: 3.54e-05 s⁻¹
- rhTNFα/Ab [4]: 1.39
- koff [5]: 4.94e-05 s⁻¹
- Ab, bound, RUs [6]: 1110 RU
- koff [6]: 3.67e-05 s⁻¹
- rhTNFα/Ab [6]: 1.32
- Ab, bound, RUs [7]: 231 RU
- koff [7]: 6.95e-05 s⁻¹
- rhTNFα/Ab [7]: 0.26
- Ab, bound, RUs [8]: 433 RU
- koff [8]: 7.37e-05 s⁻¹
- rhTNFα/Ab [8]: 0.47
- Ab, bound, RUs [10]: 881 RU
- koff [10]: 5.38e-05 s⁻¹
- rhTNFα/Ab [10]: 1.2
- Kd [11]: 0.46 nM
- Stoichiometry [11]: 1.4
- koff [11]: 8.7e-05 s⁻¹
- kon [11]: 190000 M⁻¹ s⁻¹
Substance: MAK 195 F(ab′)2 fragment (murine anti-hTNFα mAb)
- IC50, neutralization of TNFα-induced L929 cytotoxicity [9]: 0.062 nM
